In US20080044413A1 (published 2008):

How the values were obtained:
[1] = target: T1, Human EphA2-Fc fusion protein (human, UniProt P29317 24-537); assay: SPR (Biacore 3000), soluble IgG on immobilized EphA2-Fc
T1 construct: extracellular domain; Expressed in HEK 293 cells; Biotinylated in the capture ELISAs; also called soluble EphA2 Fc fusion protein; not shown: Fc portion of a human IgG1

[2] = target: T1, Human EphA2-Fc fusion protein; assay: method not stated in this paragraph (framework shuffling)
cynomolgus EphA2 = target: T2, cynomolgus EphA2 (cynomolgus, UniProt Q1KL86 24-976); assay: flow cytometry on cynomolgus EphA2 transfected CHO cells, antibody 10 µg/ml, AlexaFluor 488 anti-mouse or anti-human IgG (H+L)
T2 construct: whole, on cells; also called cynomolgus EphA2 expressed on transfected CHO cells
T2 sequence (Q1KL86 24-976): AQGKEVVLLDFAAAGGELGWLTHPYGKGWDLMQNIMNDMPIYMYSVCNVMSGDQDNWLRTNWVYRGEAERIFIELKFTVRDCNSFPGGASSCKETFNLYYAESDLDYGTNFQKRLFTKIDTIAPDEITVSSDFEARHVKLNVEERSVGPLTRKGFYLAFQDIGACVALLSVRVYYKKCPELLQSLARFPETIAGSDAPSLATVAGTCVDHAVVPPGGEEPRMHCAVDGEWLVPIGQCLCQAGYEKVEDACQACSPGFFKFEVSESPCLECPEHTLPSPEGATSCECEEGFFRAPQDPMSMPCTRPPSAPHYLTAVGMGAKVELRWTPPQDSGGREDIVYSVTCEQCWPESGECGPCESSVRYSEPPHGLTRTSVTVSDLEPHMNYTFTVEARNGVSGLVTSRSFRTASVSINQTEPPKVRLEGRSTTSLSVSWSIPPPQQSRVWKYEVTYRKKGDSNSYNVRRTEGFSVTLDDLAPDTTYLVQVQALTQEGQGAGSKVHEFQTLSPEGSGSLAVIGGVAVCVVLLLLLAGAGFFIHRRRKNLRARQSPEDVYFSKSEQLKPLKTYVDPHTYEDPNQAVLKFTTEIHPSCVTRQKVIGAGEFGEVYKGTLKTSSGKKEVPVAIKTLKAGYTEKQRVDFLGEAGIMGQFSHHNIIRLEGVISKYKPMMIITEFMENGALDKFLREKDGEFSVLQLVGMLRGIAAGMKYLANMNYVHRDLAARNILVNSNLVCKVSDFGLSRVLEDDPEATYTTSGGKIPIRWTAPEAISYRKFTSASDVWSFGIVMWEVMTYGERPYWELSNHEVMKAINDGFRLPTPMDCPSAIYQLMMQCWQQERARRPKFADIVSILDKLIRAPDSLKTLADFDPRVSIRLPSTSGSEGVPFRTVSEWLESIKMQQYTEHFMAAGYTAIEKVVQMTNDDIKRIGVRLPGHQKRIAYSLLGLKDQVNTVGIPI
Protocol: Subconfluent monolayers of SW480 colon carcinoma or cynomolgus EphA2 transfected CHO cells were quickly trypsinized, washed, counted, plated into 96-well round bottom plates, and stained with 10 μg/ml of a negative control antibody (R347), the anti-human EphA2 murine antibody, EA2 (Coffman 2003), or humanized antibodies, 3F2 and 4H5. Cells were resuspended in AlexaFluor 488 anti-mouse or anti-human IgG H+L (Invitrogen) and then analyzed by flow cytometry using a FACSCalibur (Becton Dickinson).

[3] = target: T1, Human EphA2-Fc fusion protein; assay: method and format of the clone not stated in this paragraph (framework shuffling)
[4] = target: T1, Human EphA2-Fc fusion protein; assay: SPR, immobilized EphA2-Fc surface; (MT)
Source text: (§1) The formation and dissociation of BiTE/EphA2 complexes was monitored by surface plasmon resonance using a Biacore 3000 system. For this purpose, EphA2 Fc fusion protein was immobilized on a sensor chip with a CM5 carboxymethylated dextran matrix. Optimal immobilization conditions were identified through pH scouting (sodium acetate pH 4.0 to pH 5.5; disodium tetraborate pH 8.5). The optimal pH value was pH 4.0. After immobilization of 1000 RU to flow cell 2, 5,000 RU to flow cell 3 and 400 RU to flow cell 4, excess reactive groups were deactivated by ethanolamine. The affinity of the anti-EphA2 BiTE to immobilized EphA2 was determined by injecting different concentrations of the analyte deimmunized anti-CD3×EA2 VHVL diluted in HBS-EP buffer. To regenerate the surface, REGEN buffer (50 mM NaOH; 20 mM MES; 1 mM NaCl pH 6.4) was used.

human EphA2 [5] = target: T3, human EphA2 (human, UniProt P29317 24-976); assay: cell-based or functional assay
human EphA2 [6] = target: T3, human EphA2; assay: cell-based or functional assay; remark: listed apart in the source
[7] = target: T1, Human EphA2-Fc fusion protein; assay: SPR (Biacore 3000), EphA2 Fc fusion protein immobilized on CM5, BiTE as analyte
Source text: as §1

human EphA2 [8] = target: T3, human EphA2; assay: cell-based or functional assay; remark: listed apart in the source
human EphA2 [9] = target: T3, human EphA2; assay: cell-based or functional assay; remark: listed apart in the source
[10] = target: T1, Human EphA2-Fc fusion protein; assay: SPR, immobilized EphA2-Fc surface; (MedI)
human EphA2 [11] = target: T3, human EphA2; assay: cell-based or functional assay; remark: listed apart in the source
human EphA2 [12] = target: T3, human EphA2; assay: cell-based or functional assay; remark: listed apart in the source
soluble CD3εγ = target: T4, soluble CD3εγ (human, UniProt P07766 23-118; P09693 23-103); assay: SPR, immobilized soluble CD3εγ surface; estimate, biphasic association
T4 construct: Amine-coupled to a CM5 chip

B1: Humanized 2G6 (antibody, human IgG1, V domains shown)
VH: EVQLVESGGGVVRPGGSLRLSCAASGFTVSDYSMNWVRQAPGKGLEWIGFIRNKANDYTTEYSASVKGRFTISRDDSKNTLYLQMNSLKTEDTAVYYCTTYPRYHAMDSWGQGTMVTVSS
VL: AIQLTQSPSSLSASVGDRVTITCRASQSISNNLHWYLQKPGQSPQLLIYYVFQSISGVPSRFSGSGSGTDFTLTISSLQPEDFATYYCQQSNSWPLTFGGGTKLEIK
notes: Framework-shuffled humanized B233; human IgG1 with human kappa chain in the Biacore analysis
- Kd [1]: 3 nM
- koff [1]: 0.00019 s⁻¹
- kon [1]: 64000 M⁻¹ s⁻¹
- fold loss of affinity compared with chimaeric mAb B233 [2]: ~10 fold

B2: humanized anti-human EphA2 mAb 4H5 (antibody, V domains shown)
VH: QVQLLESGGGLVQPGGSLRLSCAASGFTFSSYTMSWVRQAPGQALEWMGTISSGGTYTYYPDSVKGRFTISRDNAKNSLYLQMNSLRAEDTAVYYCAREAIFTYWGRGTLVTVSS
VL: DIQLTQSPSSLSASVGDRVTITCKASQDINNYLSWYQQKPGQAPRLLIYRANRLVDGVPDRFSGSGYGTDFTLTINNIESEDAAYYFCLKYDVFPYTFGQGTKVEIK
notes: Humanized from EA2 by framework shuffling; detected with anti-human IgG; also called humanized clone 4H5
- binding result (cynomolgus EphA2): binds
- fold increase of affinity compared with chimaeric Fab EA2 [3]: ~20 fold

B3: EphA2-BiTE deimmunized anti-CD3 (VH/VL) × EA2 (VH/VL) (bispecific antibody)
chain: DVQLVQSGAEVKKPGASVKVSCKASGYTFTRYTMHWVRQAPGQGLEWIGYINPSRGYTNYADSVKGRFTITTDKSTSTAYMELSSLRSEDTATYYCARYYDDHYCLDYWGQGTTVTVSSGEGTSTGSGGSGGSGGADDIVLTQSPATLSLSPGERATLSCRASQSVSYMNWYQQKPGKAPKRWIYDTSKVASGVPARFSGSGSGTDYSLTINSLEAEDAATYYCQQWSSNPLTFGGGTKVEIKSGGGGSDVKLVESGGGLVKPGGSLKLSCAASGFTFSSYTMSWVRQTPEKRLEWVATISSGGTYTYYPDSVKGRFTISRDNAKNTLYLQMSSLKSEDTAMYYCTREAIFTYWGQGTLVTVSSGGGGSGGGGSGGGGSDIKMTQSPSSMYASLGERVTITCKASQDINNYLSWFQQKPGKSPKTLIYRANRLVDGVPSRFSGSGSGQDYSLTISSLEYEDMGIYYCLKYDEFPYTFGGGTKLEIKHHHHHH
notes: C-terminal His tag; Purified monomer from CHO cells; also called deimmunized anti-CD3×EA2 (VH/VL); deimmunized anti-CD3-EA2(VH/VL)
- Kd [4]: 45 nM
- EC50 of redirected lysis, 51Cr release, A549 (human EphA2 [5]): 123 ng/mL
- EC50 of redirected lysis, 51Cr release, A549, second experiment (human EphA2 [5]): 24.8 ng/mL
- EC50 of redirected lysis, 51Cr release, MDA MB231 (human EphA2 [5]): 5.8 ng/mL
- EC50 of redirected lysis, 51Cr release, MDA MB231, second experiment (human EphA2 [5]): 8.6 ng/mL
- EC50 of tumor cell killing, ACHN cells (human EphA2 [6]): 3 ng/mL
- EC50 of tumor cell killing, Caki 2 cells (human EphA2 [6]): 30 ng/mL
- EC50 of tumor cell killing, DU145 cells (human EphA2 [6]): 0.8 ng/mL
- EC50 of tumor cell killing, PC3 cells (human EphA2 [6]): 6 ng/mL
- EC50 of tumor cell killing, SW480 cells (human EphA2 [6]): 6 ng/mL
- median EC50 of tumor cell killing, SW480 targets, 49 donors (human EphA2 [6]): 24 ng/mL
- Kd [7]: 44.6 nM
- koff [7]: 0.0426 s⁻¹
- kon [7]: 956000 M⁻¹ s⁻¹
- EC50 of redirected lysis, A549, PBMC effectors, batch 040507PMa02 (human EphA2 [8]): 32.8 ng/mL
- EC50 of redirected lysis, A549, PBMC effectors, batch 040907USy02 (human EphA2 [8]): 10.2 ng/mL
- EC50 of redirected lysis, A549, stimulated CD8 T-cells, batch 040507PMa02 (human EphA2 [8]): 3.3 ng/mL
- EC50 of redirected lysis, A549, stimulated CD8 T-cells, batch 040907USy02 (human EphA2 [8]): 1.6 ng/mL
- EC50 of redirected lysis, MDA MB 231, PBMC effectors, batch 040507PMa02 (human EphA2 [8]): 7.6 ng/mL
- EC50 of redirected lysis, MDA MB 231, PBMC effectors, batch 040907USy02 (human EphA2 [8]): 3.2 ng/mL
- EC50 of redirected lysis, MDA MB 231, stimulated CD8 T-cells, batch 040507PMa02 (human EphA2 [8]): 0.7 ng/mL
- EC50 of redirected lysis, MDA MB 231, stimulated CD8 T-cells, batch 040907USy02 (human EphA2 [8]): 0.5 ng/mL
- EC50 of cytotoxic activity, 51Cr release, MDA-MB231 target cells, NK cell-depleted PBMC, E:T 10:1, 18 h; BiTE diluted directly before assay in medium (control) (human EphA2 [9]): 1.9 ng/mL
- EC50 of cytotoxic activity, 51Cr release, MDA-MB231 target cells, NK cell-depleted PBMC, E:T 10:1, 18 h; BiTE diluted directly before assay in plasma (control) (human EphA2 [9]): 2 ng/mL
- EC50 of cytotoxic activity, 51Cr release, MDA-MB231 target cells, NK cell-depleted PBMC, E:T 10:1, 18 h; BiTE kept 24 h in plasma at 4° C. before the assay (human EphA2 [9]): 2.2 ng/mL
- EC50 of cytotoxic activity, 51Cr release, MDA-MB231 target cells, NK cell-depleted PBMC, E:T 10:1, 18 h; BiTE kept 24 h in plasma at 37° C. before the assay (human EphA2 [9]): 3.1 ng/mL
- Kd [10]: 113 nM
- EC 50 of lysis, 51Cr release, B16 F10 EphA2 transfected cells, stimulated human CD8 T-cells, E:T 10:1, 18 h (human EphA2 [11]): 21.7 ng/mL
- EC50 of redirected lysis, A549, NK cell-depleted PBMC of Donor #1 (human EphA2 [12]): 20.9 ng/mL
- EC50 of redirected lysis, A549, NK cell-depleted PBMC of Donor #2 (human EphA2 [12]): 22.6 ng/mL
- EC50 of redirected lysis, A549, NK cell-depleted PBMC of Donor #3 (human EphA2 [12]): 24.8 ng/mL
- EC50 of redirected lysis, A549, NK cell-depleted PBMC of Donor #4 (human EphA2 [12]): 28.5 ng/mL
- EC50 of redirected lysis, A549, NK cell-depleted PBMC of Donor #6 (human EphA2 [12]): 32.8 ng/mL
- EC50 of redirected lysis, A549, NK cell-depleted PBMC of Donor #7 (human EphA2 [12]): 6.6 ng/mL
- EC50 of redirected lysis, MDA-MB 231, NK cell-depleted PBMC of Donor #1 (human EphA2 [12]): 15.4 ng/mL
- EC50 of redirected lysis, MDA-MB 231, NK cell-depleted PBMC of Donor #2 (human EphA2 [12]): 5.8 ng/mL
- EC50 of redirected lysis, MDA-MB 231, NK cell-depleted PBMC of Donor #3 (human EphA2 [12]): 8.6 ng/mL
- EC50 of redirected lysis, MDA-MB 231, NK cell-depleted PBMC of Donor #4 (human EphA2 [12]): 23.9 ng/mL
- EC50 of redirected lysis, MDA-MB 231, NK cell-depleted PBMC of Donor #5 (human EphA2 [12]): 1.9 ng/mL
- EC50 of redirected lysis, MDA-MB 231, NK cell-depleted PBMC of Donor #6 (human EphA2 [12]): 7.6 ng/mL
- EC50 of redirected lysis, MDA-MB 231, NK cell-depleted PBMC of Donor #7 (human EphA2 [12]): 3.2 ng/mL
- Kd (soluble CD3εγ): 400 to 500 nM
